Data from patent publication US20260207704A1, “STAPLED PEPTIDES AND METHODS THEREOF” (priority 2022, published 2026).
*1 amine or outer side, *2 acyl side, *3 side chain or, on linkers, in order; H or OH if unused. Bridges are numbered along the chain shown (N, C = ends). Primed or numbered codes have the meaning given here. [ ]: non-standard residue; d: D form. The star is where a group is joined. PyrS2(6) = (S)-3-amino-1-((pent-4-en-1-yloxy)carbonyl)pyrrolidine-3-carboxylic acid, stapled with another olefin-containing amino acid residue through the olefin group, O=C(OCCCC=[*:3])N1CC[C@@](N[*:1])(C(=O)[*:2])C1; B5(4) = 2-amino-2-(pent-4-en-1-yl)hept-6-enoic acid, stapled through each of its two olefin groups with other olefin-containing amino acid residues, O=C(C(CCCC=[*:3])(CCCC=[*:4])N[*:1])[*:2]; PyrS2″ = (S)-3-amino-1-((pent-4-en-1-yloxy)carbonyl)pyrrolidine-3-carboxylic acid (olefin stapling residue), C=CCCCOC(=O)N1CC[C@@](N[*:1])(C(=O)[*:2])C1; PyrS2 = (S)-3-amino-1-((pent-4-en-1-yloxy)carbonyl)pyrrolidine-3-carboxylic acid, olefin staple residue, C=CCCCOC(=O)N1CC[C@@](N[*:1])(C(=O)[*:2])C1; PyrS2(3) = (S)-3-amino-1-((pent-4-en-1-yloxy)carbonyl)pyrrolidine-3-carboxylic acid, olefin residue, C=CCCCOC(=O)N1CC[C@@](N[*:1])(C(=O)[*:2])C1; PyrS2(5) = (S)-3-amino-1-((pent-4-en-1-yloxy)carbonyl)pyrrolidine-3-carboxylic acid, C=CCCCOC(=O)N1CC[C@@](N[*:1])(C(=O)[*:2])C1; B5(5) = 2-amino-2-(pent-4-en-1-yl)hept-6-enoic acid (two olefin arms), C=CCCCC(CCCC=C)(N[*:1])C(=O)[*:2]; B5(3) = 2-amino-2-(pent-4-en-1-yl)hept-6-enoic acid, two olefin arms, C=CCCCC(CCCC=C)(N[*:1])C(=O)[*:2]; TriAzLys″ = azidolysine residue closed into triazole staple, O=C([C@H](CCCCn1cc([*:3])nn1)N[*:1])[*:2]; Me2Mal = 2-carboxy-2-methylpropanoyl group on the Lys side chain, CC(C)(C(=O)O)C(=O)*; 2F3MeF″ = aromatic residue, Cc1cccc(C[C@H](N[*:1])C(=O)[*:2])c1F; Phe(3-COOH) = N[C@@H](Cc1cccc(C(=O)O)c1)C(=O)O; 2F3MeF = Cc1cccc(C[C@H](N[*:1])C(=O)[*:2])c1F; Phe(2-Cl) = N[C@@H](Cc1ccccc1Cl)C(=O)O; Bta = N[C@@H](Cc1csc2ccccc12)C(=O)O; αAllylPro = C=CC[C@@]1(C(=O)O)CCCN1; BztA = aromatic amino acid residue; tBuAla = CC(C)(C)C[C@H](N)C(=O)O; 3Thi = N[C@@H](Cc1ccsc1)C(=O)O; Suc = O=C(CCC(=O)[*:2])[*:1]; 2F3MeF(4) = Phe analogue; Nle = CCCC[C@H](N)C(=O)O; Orn = NCCC[C@H](N)C(=O)O; TfeGA = not defined here; AsnR = not defined here; GlnR = not defined here; sAla = not defined here; PL3 = not defined here; B5 = not defined here; Aib = CC(C)(N)C(=O)O

What was measured:
beta-catenin (human) [1] = test: fluorescence polarization
beta-catenin (human) [2] = test: cell-based or functional assay

Sequence of beta-catenin (human) (B6V8E6 146-665 limits assumed): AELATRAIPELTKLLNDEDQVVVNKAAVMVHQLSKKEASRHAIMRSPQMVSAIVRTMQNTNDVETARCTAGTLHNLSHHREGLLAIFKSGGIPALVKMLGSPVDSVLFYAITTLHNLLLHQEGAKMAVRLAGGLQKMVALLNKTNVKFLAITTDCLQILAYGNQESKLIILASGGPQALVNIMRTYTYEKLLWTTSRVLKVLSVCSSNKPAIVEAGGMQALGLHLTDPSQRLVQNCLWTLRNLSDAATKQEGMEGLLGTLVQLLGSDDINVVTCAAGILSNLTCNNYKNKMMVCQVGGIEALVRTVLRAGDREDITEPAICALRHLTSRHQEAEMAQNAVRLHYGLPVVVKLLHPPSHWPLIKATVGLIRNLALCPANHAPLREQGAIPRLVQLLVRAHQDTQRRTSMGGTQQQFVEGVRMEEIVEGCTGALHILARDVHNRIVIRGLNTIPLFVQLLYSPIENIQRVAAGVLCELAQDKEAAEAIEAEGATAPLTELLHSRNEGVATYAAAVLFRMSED

Row | IC50 (beta-catenin (human) [1]) | NanoBRET Abs IC50 (beta-catenin (human) [2]) | NanoBRET Abs IC50 (bin >3.0 uM) (beta-catenin (human) [2]) | Binder
1 | < 50 nM | – | – | Ac-[αAllylPro]D[tBuAla][B5(3)]D[Phe(3-COOH)]K(Me2Mal)AFL[PyrS2(3)][Phe(2-Cl)][Bta]K-NH2 (not fully specified (residue 6, bridges); printed as Ac-PL3-Asp-Npg-B5-Asp-3COOHF-[Me2Mal]Lys-Ala-Phe-Leu-PyrS2-2ClF-BztA-Lys-NH2) [I-52]
2 | < 50 nM | > 10000 nM | – | Ac-[αAllylPro]D[tBuAla][B5(4)]D[TfeGA]LAFK[PyrS2″][2F3MeF][Bta][GlnR]A-NH2 (bridge 10-14; not fully specified (bridges); reading uncertain; also: Lys*3 and GlnR*3 marked *3) [I-122]
3 | < 50 nM | – | – | Ac-[PL3]D[tBuAla][B5(4)]D[Phe(3-COOH)]AAF[TriAzLys″][PyrS2″][2F3MeF][Bta][sAla]-NH2 (triazole 10-14; not fully specified (bridges); printed as Ac-PL3-Asp-Npg-B5-Asp-3COOHF-Ala-Ala-Phe-TriAzLys*3-PyrS2-2F3MeF-BztA-sAla*3-NH2; reading uncertain) [I-22]
4 | < 50 nM | – | – | Ac-[αAllylPro]D[tBuAla][B5(5)]D[Phe(3-COOH)]KAFL[PyrS2(5)][3Thi][Bta]K-NH2 (not fully specified (residue 6); printed as Ac-PL3-Asp-Npg-B5-Asp-3COOHF-[isophthalate]-Lys-Ala-Phe-Leu-PyrS2-3Thi-BztA-Lys-NH2; also: isophthalate unit next to Lys7, attachment not given here, PL3/B5/PyrS2 staple links not placed) [I-45]
5 | < 50 nM | – | – | Ac-[αAllylPro]D[tBuAla][B5(3)]D[Phe(3-COOH)][Nle]AFK[PyrS2(3)][3Thi][Bta][GlnR]A-NH2 (bridge 10-14; not fully specified (bridges); printed as Ac-PL3-Asp-Npg-B5-Asp-3COOHF-nLeu-Ala-Phe-Lys*3-PyrS2-3Thi-BztA-GlnR*3-Ala-NH2; reading uncertain) [I-70]
6 | < 50 nM | – | – | Ac-[PL3]N[tBuAla][B5]D[Phe(3-COOH)]QAFK[PyrS2″][3Thi][BztA][GlnR]A-NH2 (staple 1-4 (inferred); bridge 10-14; not fully specified (residue 10, bridges); printed as Ac-PL3-Asn-Npg-B5-Asp-3COOHF-Gln-Ala-Phe-Lys*3-PyrS2-3Thi-BztA-GlnR*3-Ala-NH2; reading uncertain; also: Lys10 and GlnR14 marked *3) [I-88]
7 | < 50 nM | – | – | XDQXDXKAFKXXXQA (not fully specified; Ac-PL3-Asp-GlnR**3-B5-Asp-3COOHF-Lys**3-Ala-Phe-Lys*3-PyrS2-3Thi-BztA-GlnR*3-Ala-NH2) [I-74]
8 | < 50 nM | – | – | Ac-[PL3]D[tBuAla][B5(4)]D[Phe(3-COOH)]AAF[TriAzLys″][PyrS2″][3Thi][Bta][sAla]-NH2 (triazole 10-14; not fully specified (bridges); printed as Ac-PL3-Asp-Npg-B5-Asp-3COOHF-Ala-Ala-Phe-TriAzLys*3-PyrS2-3Thi-BztA-sAla*3-NH2; reading uncertain) [I-20]
9 | < 50 nM | – | – | Ac-[PL3]D[tBuAla][B5]N[Phe(3-COOH)]AAFK[PyrS2″][3Thi][BztA][GlnR]A-NH2 (staple 1-4 (inferred); bridge 10-14; not fully specified (residue 10, bridges); printed as Ac-PL3-Asp-Npg-B5-Asn-3COOHF-Ala-Ala-Phe-Lys*3-PyrS2-3Thi-BztA-GlnR*3-Ala-NH2; reading uncertain) [I-82]
10 | < 50 nM | – | – | Ac-[αAllylPro]D[tBuAla][B5(3)]D[Phe(3-COOH)][Aib]AFK[PyrS2(3)][2F3MeF″][Bta][GlnR]A-NH2 (bridge 10-14; not fully specified (bridges); printed as Ac-PL3-Asp-Npg-B5-Asp-3COOHF-Aib-Ala-Phe-Lys*3-PyrS2-2F3MeF-BztA-GlnR*3-Ala-NH2; reading uncertain) [I-69]
11 | < 50 nM | – | – | Ac-[PL3]N[tBuAla][B5]D[Phe(3-COOH)]SAFK[PyrS2″][3Thi][BztA][GlnR]A-NH2 (staple 1-4 (inferred); bridge 10-14; not fully specified (residue 10, bridges); printed as Ac-PL3-Asn-Npg-B5-Asp-3COOHF-Ser-Ala-Phe-Lys*3-PyrS2-3Thi-BztA-GlnR*3-Ala-NH2; reading uncertain) [I-84]
12 | < 50 nM | – | – | Ac-[αAllylPro]N[tBuAla][B5(4)]D[Phe(3-COOH)]AAFK[PyrS2(6)][3Thi][Bta][GlnR]A-NH2 (staple 1-4 (inferred); bridge 10-14; not fully specified (residue 10, bridges); printed as Ac-PL3-Asn-Npg-B5-Asp-3COOHF-Ala-Ala-Phe-Lys*3-PyrS2-3Thi-BztA-GlnR*3-Ala-NH2; reading uncertain) [I-80]
13 | < 50 nM | – | – | Ac-[αAllylPro]D[tBuAla][B5]D[Phe(3-COOH)][Aib]AFK[PyrS2][3Thi][Bta][GlnR]A-NH2 (staple 1-4, 4-11; lactam 10-14; not fully specified; printed as Ac-PL3-Asp-Npg-B5-Asp-3COOHF-Aib-Ala-Phe-Lys*3-PyrS2-3Thi-BztA-GlnR*3-Ala-NH2; reading uncertain) [I-67]
14 | < 50 nM | – | < 10000 nM | Ac-[αAllylPro]DL[B5(4)]DDAAFK[PyrS2(6)][3Thi][Bta][GlnR]-NH2 (bridge 10-14; not fully specified (bridges); printed as Ac-PL3-Asp-Leu-B5-Asp-Asp-Ala-Ala-Phe-Lys*3-PyrS2-3Thi-BztA-GlnR*3-NH2; reading uncertain) [I-3]
15 | < 50 nM | – | – | Ac-[αAllylPro]D[tBuAla][B5(4)]D[Phe(3-COOH)]KAFL[PyrS2(6)][3Thi][Bta]K-NH2 (not fully specified (residues 6, 7, bridges); printed as Ac-PL3-Asp-Npg-B5-Asp-3COOHF-[diphenate]-Lys-Ala-Phe-Leu-PyrS2-3Thi-BztA-Lys-NH2) [I-48]
16 | < 50 nM | – | – | Ac-[αAllylPro]D[tBuAla][B5(5)]D[Phe(3-COOH)]KAFL[PyrS2(5)][3Thi][Bta]K-NH2 (not fully specified (residues 6, 7, bridges); printed as Ac-PL3-Asp-Npg-B5-Asp-3COOHF-[Me2Mal]-Lys-Ala-Phe-Leu-PyrS2-3Thi-BztA-Lys-NH2) [I-47]
17 | < 50 nM | – | – | Ac-[αAllylPro]D[tBuAla][B5(5)]D[Phe(3-COOH)]KAFL[PyrS2(5)][3Thi][Bta]K-NH2 (not fully specified (residues 6, 7, bridges); printed as Ac-PL3-Asp-Npg-B5-Asp-3COOHF-[succinate]-Lys-Ala-Phe-Leu-PyrS2-3Thi-BztA-Lys-NH2) [I-46]
18 | > 1000 nM | – | – | Ac-[αAllylPro]D[tBuAla][B5(5)]D[Phe(3-COOH)]AAF[AsnR][PyrS2(5)][3Thi][Bta][Orn]-NH2 (bridge 10-14; reading uncertain; also: PL3/B5/PyrS2 staple links not placed, printed as Ac-PL3-Asp-Npg-B5-Asp-3COOHF-Ala-Ala-Phe-AsnR*3-PyrS2-3Thi-BztA-Orn*3-NH2) [I-40]
19 | < 50 nM | – | – | XDQXDXKAFKXXXQA (not fully specified; Ac-PL3-Asp-GlnR**3-B5-Asp-3COOHF-Lys**3-Ala-Phe-Lys*3-PyrS2-3Thi-BztA-GlnR*3-Ala-NH2) [I-78]
20 | < 50 nM | – | – | Ac-[αAllylPro]D[tBuAla][B5(4)]D[Phe(3-COOH)]AAFK[PyrS2(6)][2F3MeF(4)][Bta][GlnR]A-NH2 (staple 1-4 (inferred); bridge 10-14; not fully specified (residue 10, bridges); printed as Ac-PL3-Asp-Npg-B5-Asp-3COOHF-Ala-Ala-Phe-Lys*3-PyrS2-2F3MeF-BztA-GlnR*3-Ala-NH2; reading uncertain; also: -CH=CH- in each staple reduced to -CH2-CH2-) [I-77]
21 | < 50 nM | > 10000 nM | – | Ac-[αAllylPro]D[tBuAla][B5(4)]D[TfeGA]VAFK[PyrS2″][2F3MeF][Bta][GlnR]A-NH2 (bridge 10-14; not fully specified (bridges); reading uncertain; also: Lys*3 and GlnR*3 marked *3) [I-124]
22 | < 50 nM | > 10000 nM | – | Ac-[αAllylPro]D[tBuAla][B5(4)]D[TfeGA]VAFK[PyrS2″][2F3MeF][Bta][GlnR]A-NH2 (bridge 10-14; not fully specified (bridges); reading uncertain; also: Lys*3 and GlnR*3 marked *3) [I-125]
23 | < 50 nM | – | – | Ac-[αAllylPro]D[tBuAla][B5(4)]D[Phe(3-COOH)]K(Suc)AFL[PyrS2(6)][Phe(2-Cl)][Bta]K-NH2 (not fully specified (residue 6, bridges); printed as Ac-PL3-Asp-Npg-B5-Asp-3COOHF-[succinate]-Lys-Ala-Phe-Leu-PyrS2-2ClF-BztA-Lys-NH2) [I-51]
